Measurements as given in publication PMC11144202, “Highly biased agonism for GPCR ligands via nanobody tethering” (Nature Communications, 2024).
Each block holds one binder with its values, some of them ahead of it.

Columns and labels:
[1] = biological target: T1, native human type-1 parathyroid hormone receptor (hPTHR1) (Homo sapiens, UniProt Q03431); assay: flow cytometry on cells; biotin-labeled Nbs or conjugates (500 nM in Fig. 4A, or varying concentrations) incubated 30 min on ice in PBS with 2% BSA with HEK293 cells stably expressing the receptor; detection with streptavidin-APC; settings: one partner purified
T1 construct: type-1 parathyroid hormone receptor, human, unmodified receptor on the cell surface; also called WT PTHR1; WT-PTHR1; source: HEK293 (GS22) cells, stably expressing, on cells

[2] = biological target: T2, PTHR1 extracellular domain (ECD); assay: SPR; replicate 1; biotinylated Nb immobilized
T2 chain: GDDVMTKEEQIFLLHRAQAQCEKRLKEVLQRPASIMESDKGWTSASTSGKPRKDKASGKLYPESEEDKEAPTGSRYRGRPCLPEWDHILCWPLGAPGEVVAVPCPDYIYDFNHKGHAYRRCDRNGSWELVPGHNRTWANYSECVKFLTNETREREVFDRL

[3] = biological target: T2, PTHR1 extracellular domain (ECD); assay: SPR; replicate 1; biotinylated Nb immobilized
[4] = biological target: T2, PTHR1 extracellular domain (ECD); assay: SPR; replicate 2; biotinylated Nb immobilized
[5] = biological target: T2, PTHR1 extracellular domain (ECD); assay: SPR; replicate 2; biotinylated Nb immobilized
[6] = biological target: T3, PTHR1 extracellular domain (ECD) (Homo sapiens); assay: SPR; Nb_(PTHR1) and PTHR1 ECD; details in Supplementary Methods; settings: both partners purified
T3 construct: extracellular domain of the type-1 parathyroid hormone receptor; also called PTHR1 ECD; PTHR1 (ECD)
T3 chain: T2 chain

[7] = biological target: T2, PTHR1 extracellular domain (ECD); assay: SPR; mean of two experiments; biotinylated Nb immobilized
[8] = biological target: T4, nanoluciferase-PTHR1 fusion (nLuc-PTHR1) (Homo sapiens, UniProt Q03431); assay: FRET or BRET; competition on cells expressing nLuc-PTHR1: Nb_(PTHR1)-TMR (1 uM) followed by unlabeled ligand (2 uM), or varying unlabeled ligand added together with Nb_(PTHR1)-TMR (300 nM); settings: one partner purified
T4 construct: type-1 parathyroid hormone receptor with nanoluciferase fused to the receptor N-terminus; source: cell line stably expressing the construct, on cells; not shown: nanoluciferase, N-terminal, kept

[9] = biological target: T5, glucagon-like peptide-1 receptor (GLP1R) (UniProt P43220 24-463); assay: SPR; GLP1R-ECD; replicate 1
T5 chain: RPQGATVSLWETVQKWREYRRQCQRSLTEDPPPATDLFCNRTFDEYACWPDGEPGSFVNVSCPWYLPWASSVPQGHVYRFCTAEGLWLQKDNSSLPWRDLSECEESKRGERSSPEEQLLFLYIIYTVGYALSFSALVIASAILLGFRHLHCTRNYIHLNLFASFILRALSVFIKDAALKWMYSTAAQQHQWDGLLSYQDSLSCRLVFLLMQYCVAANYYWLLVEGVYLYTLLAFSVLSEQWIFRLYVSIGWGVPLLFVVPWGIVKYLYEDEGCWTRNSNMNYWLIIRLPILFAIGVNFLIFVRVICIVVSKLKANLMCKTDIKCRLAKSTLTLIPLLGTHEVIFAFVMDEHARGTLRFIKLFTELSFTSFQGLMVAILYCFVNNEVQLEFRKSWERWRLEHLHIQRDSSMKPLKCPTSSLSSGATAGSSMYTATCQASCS

[10] = biological target: T5, glucagon-like peptide-1 receptor (GLP1R); assay: SPR; GLP1R-ECD; replicate 2
[11] = biological target: T5, glucagon-like peptide-1 receptor (GLP1R); assay: SPR; GLP1R-ECD; replicate 2
[12] = biological target: T5, glucagon-like peptide-1 receptor (GLP1R); assay: SPR; GLP1R-ECD; replicate 1

T1 sequence (Q03431 27-593): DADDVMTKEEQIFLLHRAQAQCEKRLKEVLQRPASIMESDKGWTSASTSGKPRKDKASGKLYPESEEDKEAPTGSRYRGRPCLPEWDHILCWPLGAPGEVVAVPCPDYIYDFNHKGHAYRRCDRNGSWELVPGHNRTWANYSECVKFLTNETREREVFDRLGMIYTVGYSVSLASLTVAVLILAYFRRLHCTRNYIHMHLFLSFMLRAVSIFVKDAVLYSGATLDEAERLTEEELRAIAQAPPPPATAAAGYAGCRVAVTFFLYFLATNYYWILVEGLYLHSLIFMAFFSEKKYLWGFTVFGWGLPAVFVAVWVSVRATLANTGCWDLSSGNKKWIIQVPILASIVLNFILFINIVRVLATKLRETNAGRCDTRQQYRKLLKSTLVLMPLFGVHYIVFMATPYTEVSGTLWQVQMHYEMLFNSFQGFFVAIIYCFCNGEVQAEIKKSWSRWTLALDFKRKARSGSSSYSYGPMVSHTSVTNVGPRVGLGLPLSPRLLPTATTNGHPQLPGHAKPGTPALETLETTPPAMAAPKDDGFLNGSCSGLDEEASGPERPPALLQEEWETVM
T4 sequence (Q03431 27-593): as above

B3: Nb_(PTHR1) labeled with biotin (VHH)
VHH: EVQLVESGGGLVQAGGSLRLSCAASGNIFANNIMGWYRQPPGKEREFVAHVSHDGDSMYAVSVKGRFAISRKDATNLYLQMNSLKPEDTAIYFCRLLNIPTQGRMEGFWGQGTQVTVSS
notes: as the chain of m5; His6 is lost in the sortase reaction (unreacted protein is captured on nickel NTA beads); also called biotin-labeled Nb_(PTHR1); source: E. coli BL21(DE3), purified (Ni-NTA, SEC), labeled by sortagging; not shown: His6, C-terminal, cleaved
binding result [1]: binds

B4: Nb_(PTHR1)-TMR (tetramethylrhodamine-labeled Nb_(PTHR1)) (VHH)
VHH: B3 VHH
notes: as the chain of m5; His6 is lost in the sortase reaction; also called TMR-Nb_(PTHR1); source: E. coli BL21(DE3), purified (Ni-NTA, SEC), labeled by sortagging; not shown: His6, C-terminal, cleaved
binding result [8]: binds

B5: Nb_(GLP1R) (VHH)
VHH: EVQLVESGGGLVQAGGSLRLSCAASGNTYSYKVMGWFRQAPGKEREFVGIIIRNGDTTYYADSVKGRFTISADNAKNTVYLQMNSLKPEDTAVYYCAASPKYMTAYERSYDWGQGTQVTVSS
koff [9]: 0.0041 s⁻¹
koff [10]: 0.0013 s⁻¹
Kd [11]: 32 nM
Kd [12]: 24 nM

The remaining lines, values ahead:

binding result [1]: binds
B1: Nb_(PTHR1-X2) labeled with biotin (VHH)
VHH: EVQLVESGGGLVQAGGSLRLSCAASGLTFSNYAMGWFRQAPGKEREWVASINWSGGSTYYEDSVEGRFTISRDNAKNTVNLQMNSLKPEDTAVYYCAAKRGHYSREYDYWGQGTQVTVSS
notes: as the chain of m8; His6 is lost in the sortase reaction; also called Nb_(PTHR-X2); source: E. coli BL21(DE3), purified (Ni-NTA, SEC), labeled by sortagging; not shown: His6, C-terminal, cleaved

koff [2]: 0.0065 s⁻¹
Kd [3]: 0.5 nM
Kd [4]: 0.9 nM
koff [5]: 0.0015 s⁻¹
Kd [6]: ~1 nM
Kd [7]: 0.7 nM
B2: Nb_(PTHR1), unlabeled (VHH)
VHH: B3 VHH
notes: Expressed from pET26b in frame with pelB and His6; the Nbs for sortagging bear LPETGG followed by His6 at the C-terminus; also called VHH_(PTHR); source: E. coli BL21(DE3), purified (Ni-NTA, SEC)
